Five substances from patent publication US11786578B2, “Modified relaxin polypeptides and their uses” (AMBRX, INC., priority 2010, dated 2023) can be followed below.

Non-standard residues stand in square brackets, D forms with d. No end group written: not given here. Phe(4-Ac) = CC(=O)c1ccc(C[C@H](N)C(=O)O)cc1

The nature of this data set: PK of 20 kDa PEGylated relaxin polypeptides after a single subcutaneous injection in SD rats (Example 40). The class given is in vivo, Sprague-Dawley (SD) rats. The conditions noted are these: for AUCinf / CL (mL/hr) / Cmax / MRT / Tmax / Vz / Terminal HL / Mean serum Conc.: 0.5 mg/kg SC; for AUCinf / CL (mL/hr) / Cmax / MRT / Tmax / Vz / Terminal HL: SD rats; for Terminal HL: non-compartmental; for Mean serum Conc.: male SD rats; for In vivo PK Term HL: 20K PEG. The source says: This example evaluates the pharmacokinetic properties of 20 kDa PEGylated relaxin polypeptides following a single subcutaneous injection in SD rats.
1st order elimination model and Gauss-Newton (Levenberg-Hartley) model fit equation. […] FIG. 8A-8/compares group mean serum concentration versus time for all PEG-Relaxin compounds dosed. All dose groups had measurable serum PEG-Relaxin levels.

As to “RLX-A-AR18-20KPEG-001: relaxin variant, B1 Ala, pAF at A chain position R18, 20K PEGylated (chain 1 QLYSALANKCCHVGCTKXSLARFC; chain 2 ASWMEEVIKLCGRELVRAQIAICGMSTWS; not fully specified; non-natural residues)”, the “AUCinf” value worked out at 12985.5 ng·h/mL, the “CL (mL/hr)” value was determined as 0.64 mL/min/kg, the Cmax (usually the maximum level reached in the sampled fluid or tissue) is given as 345.9 ng/mL and the MRT (usually the average time that molecules of a dose stay in the body) was determined as 27.7 h. For the same substance, the Tmax (usually the time at which the peak concentration occurs) came to 25.0 h, the “Vz” value came to 0.6947 L/kg, the “Terminal HL” value is 12.5 h and the “In vivo PK Term HL” value was 12.5 h. Also, the “Mean serum Conc.” value (1 hr) was found to be 33.9 ng/mL. Besides, where the note is “2 hr”, the “Mean serum Conc.” value is on record as 109.7 ng/mL. Moreover, under “4 hr”, the “Mean serum Conc.” value is 172.7 ng/mL. Also, where the note is “8 hr”, the “Mean serum Conc.” value is given as 270.5 ng/mL. The “Mean serum Conc.” value (12 hr) was determined as 332.5 ng/mL. In addition, the “Mean serum Conc.” value (25 hr) is listed as 398.6 ng/mL. Also, for the setting “34 hr”, the “Mean serum Conc.” value is recorded as 264.3 ng/mL. For the same substance, under “50 hr”, the “Mean serum Conc.” value amounted to 76.7 ng/mL. Further, under “58 hr”, the “Mean serum Conc.” value is listed as 61.8 ng/mL. Besides, under “73 hr”, the “Mean serum Conc.” value was found to be 25.0 ng/mL. In addition, the “Mean serum Conc.” value (80 hr) is listed as 14.9 ng/mL. The “Mean serum Conc.” value (pre-dose (PD)) is on record as “BQL”.
As to “RLX-A-BV7-20KPEG-001: relaxin variant, B1 Ala, pAF at B chain position V7, 20K PEGylated (chain 1 QLYSALANKCCHVGCTKRSLARFC; chain 2 ASWMEE[Phe(4-Ac)](PEG 20 kDa)IKLCGRELVRAQIAICGMSTWS; not fully specified (bridges); ends and bridges not checked)”, the “AUCinf” value was 17260.9 ng·h/mL, the “CL (mL/hr)” value worked out at 0.482 mL/min/kg, the “Cmax” value is 471.6 ng/mL and the “MRT” value turned out to be 27.9 h. Further, the “Tmax” value is 12.0 h, the “Vz” value was 0.5469 L/kg, the “Terminal HL” value stood at 13.1 h and the “In vivo PK Term HL” value worked out at 13.1 h. The “Mean serum Conc.” value (1 hr) is 25.7 ng/mL. The “Mean serum Conc.” value (2 hr) is given as 98.9 ng/mL. Where the note is “4 hr”, the “Mean serum Conc.” value turned out to be 248.5 ng/mL. Where the note is “8 hr”, the “Mean serum Conc.” value turned out to be 343.5 ng/mL. For the same substance, the “Mean serum Conc.” value (12 hr) turned out to be 457.3 ng/mL. The “Mean serum Conc.” value (25 hr) was determined as 518.5 ng/mL. In addition, the “Mean serum Conc.” value (34 hr) is 270.4 ng/mL. Besides, where the note is “50 hr”, the “Mean serum Conc.” value is 104.0 ng/mL. Moreover, the “Mean serum Conc.” value (58 hr) is 63.5 ng/mL. Under “73 hr”, the “Mean serum Conc.” value is on record as 26.0 ng/mL. For the same substance, where the note is “80 hr”, the “Mean serum Conc.” value came out at 22.6 ng/mL. For the same substance, the “Mean serum Conc.” value (pre-dose (PD)) is listed as “BQL”.
Regarding “RLX-A-AA5-20KPEG-001: relaxin variant, B1 Ala, pAF at A chain position A5, 20K PEGylated (chain 1 QLYSXLANKCCHVGCTKRSLARFC; chain 2 ASWMEEVIKLCGRELVRAQIAICGMSTWS; not fully specified; non-natural residues)”, the “AUCinf” value was determined as 16095.9 ng·h/mL, the “CL (mL/hr)” value amounted to 0.518 mL/min/kg, the “Cmax” value was found to be 438.0 ng/mL and the “MRT” value worked out at 29.4 h. For the same substance, the “Tmax” value turned out to be 25.0 h, the “Vz” value was found to be 0.5474 L/kg, the “Terminal HL” value was determined as 12.2 h and the “In vivo PK Term HL” value was determined as 12.2 h. Besides, the “Mean serum Conc.” value (1 hr) is 19.9 ng/mL. Besides, the “Mean serum Conc.” value (2 hr) came to 100.1 ng/mL. Moreover, the “Mean serum Conc.” value (4 hr) is reported as 185.0 ng/mL. For the same substance, the “Mean serum Conc.” value (8 hr) stood at 264.7 ng/mL. For the same substance, under “12 hr”, the “Mean serum Conc.” value was 434.3 ng/mL. Besides, the “Mean serum Conc.” value (25 hr) is 438.0 ng/mL. In addition, the “Mean serum Conc.” value (34 hr) is on record as 353.5 ng/mL. Besides, under “50 hr”, the “Mean serum Conc.” value is recorded as 86.9 ng/mL. The “Mean serum Conc.” value (58 hr) amounted to 62.4 ng/mL. Moreover, the “Mean serum Conc.” value (73 hr) worked out at 32.8 ng/mL. Further, the “Mean serum Conc.” value (80 hr) worked out at 22.1 ng/mL. For the same substance, the “Mean serum Conc.” value (pre-dose (PD)) is “BQL”.
Take “RLX-A-BW28-20KPEG-001: relaxin variant, B1 Ala, pAF at B chain position W28, 20K PEGylated (chain 1 QLYSALANKCCHVGCTKRSLARFC; chain 2 ASWMEEVIKLCGRELVRAQIAICGMST[Phe(4-Ac)](PEG 20 kDa)S; not fully specified (bridges); ends and bridges not checked)”: the “AUCinf” value worked out at 22191.2 ng·h/mL, the “CL (mL/hr)” value worked out at 0.375 mL/min/kg, the “Cmax” value came to 511.0 ng/mL and the “MRT” value is 31.1 h. Besides, the “Tmax” value worked out at 25.0 h, the “Vz” value turned out to be 0.4526 L/kg, the “Terminal HL” value came to 13.9 h and the “In vivo PK Term HL” value was 13.9 h. Besides, the “Mean serum Conc.” value (1 hr) is given as 36.4 ng/mL. Further, the “Mean serum Conc.” value (4 hr) came to 228.5 ng/mL. For the same substance, the “Mean serum Conc.” value (8 hr) was determined as 380.9 ng/mL. For the same substance, under “12 hr”, the “Mean serum Conc.” value amounted to 486.6 ng/mL. Where the note is “25 hr”, the “Mean serum Conc.” value is reported as 511.0 ng/mL. For the same substance, the “Mean serum Conc.” value (34 hr) is reported as 404.8 ng/mL. Moreover, for the setting “50 hr”, the “Mean serum Conc.” value came out at 184.2 ng/mL. Further, under “58 hr”, the “Mean serum Conc.” value was 122.3 ng/mL. Under “73 hr”, the “Mean serum Conc.” value came to 48.8 ng/mL. Further, the “Mean serum Conc.” value (80 hr) stood at 37.1 ng/mL. Also, the “Mean serum Conc.” value (pre-dose (PD)) was “BQL”.
In the case of “RLX-A-AV13-20KPEG-001: relaxin variant, B1 Ala, pAF substituted for valine 13 in the A chain, 20K PEG attached (chain 1 QLYSALANKCCHXGCTKRSLARFC; chain 2 ASWMEEVIKLCGRELVRAQIAICGMSTWS; not fully specified; non-natural residues)”, the “AUCinf” value stood at 32230.5 ng·h/mL, the “CL (mL/hr)” value is 0.258 mL/min/kg, the maximum concentration (Cmax) amounted to 742.5 ng/mL and the “MRT” value was found to be 32.7 h. Moreover, the “Tmax” value came out at 25.0 h, the “Vz” value amounted to 0.3254 L/kg and the “Terminal HL” value amounted to 14.6 h. Moreover, the “Mean serum Conc.” value (1 hr) was found to be 44.9 ng/mL. Besides, for the setting “2 hr”, the “Mean serum Conc.” value is reported as 138.9 ng/mL. The “Mean serum Conc.” value (4 hr) was found to be 345.7 ng/mL. For the same substance, the “Mean serum Conc.” value (8 hr) turned out to be 533.6 ng/mL. The “Mean serum Conc.” value (12 hr) is reported as 630.1 ng/mL. Besides, under “25 hr”, the “Mean serum Conc.” value amounted to 742.5 ng/mL. Also, under “34 hr”, the “Mean serum Conc.” value was found to be 540.7 ng/mL. For the setting “50 hr”, the “Mean serum Conc.” value amounted to 320.9 ng/mL. Moreover, the “Mean serum Conc.” value (58 hr) came to 209.4 ng/mL. Moreover, the “Mean serum Conc.” value (73 hr) was determined as 75.0 ng/mL. The “Mean serum Conc.” value (80 hr) came out at 58.7 ng/mL. Further, the “Mean serum Conc.” value (pre-dose (PD)) is recorded as “BQL”.
